Like-named read-outs stand apart in the source and are kept apart here.
How the values were obtained:
human CCR7 [1] = target: T1, human CCR7 (human, UniProt P32248 25-378); test: FACS titration, NIH3T3.hCCR7 cells (receptor density >1,000,000)
T1 construct: The assay field tells which; also called hCCR7; NIH3T3.hCCR7
T1 sequence: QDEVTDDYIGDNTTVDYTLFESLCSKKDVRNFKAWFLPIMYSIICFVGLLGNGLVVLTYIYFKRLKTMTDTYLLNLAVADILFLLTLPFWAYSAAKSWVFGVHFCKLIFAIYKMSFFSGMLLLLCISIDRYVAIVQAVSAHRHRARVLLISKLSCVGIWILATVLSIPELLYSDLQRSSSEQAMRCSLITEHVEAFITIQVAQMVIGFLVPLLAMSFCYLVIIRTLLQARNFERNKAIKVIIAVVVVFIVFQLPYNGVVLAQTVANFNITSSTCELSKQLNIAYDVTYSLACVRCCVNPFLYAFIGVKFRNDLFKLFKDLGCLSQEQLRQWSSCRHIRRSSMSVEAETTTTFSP

human CCR7 [2] = target: T1, human CCR7; test: FACS titration, DEL cancer cells (receptor density ~100,000)
[3] = target: T2, recombinant hCCR7 (Origene #TP306614) (human, UniProt P32248 25-378, limits assumed); test: ELISA, recombinant CCR7 coated at 3.5 ug/ml, antibody titrated
T2 construct: Bought protein coated on ELISA plates; also called recombinant CCR7
T2 sequence (looked up): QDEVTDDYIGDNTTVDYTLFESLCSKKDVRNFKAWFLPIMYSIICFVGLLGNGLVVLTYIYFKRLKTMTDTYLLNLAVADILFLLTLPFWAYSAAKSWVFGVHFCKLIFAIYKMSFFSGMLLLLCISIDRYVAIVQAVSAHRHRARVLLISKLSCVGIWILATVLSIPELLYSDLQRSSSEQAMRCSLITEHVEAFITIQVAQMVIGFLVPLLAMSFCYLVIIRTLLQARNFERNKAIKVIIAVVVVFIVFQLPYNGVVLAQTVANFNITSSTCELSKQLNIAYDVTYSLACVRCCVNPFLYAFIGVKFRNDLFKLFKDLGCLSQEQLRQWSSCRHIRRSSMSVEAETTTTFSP

human CCR7 [4] = target: T1, human CCR7; test: FACS titration, human CD4+ T cells (receptor density <2,000)
human CCR7 [5] = target: T1, human CCR7; test: cell-based or functional assay
CCR9 = target: T3, CCR9 (UniProt P51686 1-369, limits assumed); test: FACS on PF382 cells (CCR7-/CCR9+/CCR6+)
T3 construct: whole, on cells; also called PF382 cells (CCR7-/CCR9+/CCR6+)
T3 sequence (looked up): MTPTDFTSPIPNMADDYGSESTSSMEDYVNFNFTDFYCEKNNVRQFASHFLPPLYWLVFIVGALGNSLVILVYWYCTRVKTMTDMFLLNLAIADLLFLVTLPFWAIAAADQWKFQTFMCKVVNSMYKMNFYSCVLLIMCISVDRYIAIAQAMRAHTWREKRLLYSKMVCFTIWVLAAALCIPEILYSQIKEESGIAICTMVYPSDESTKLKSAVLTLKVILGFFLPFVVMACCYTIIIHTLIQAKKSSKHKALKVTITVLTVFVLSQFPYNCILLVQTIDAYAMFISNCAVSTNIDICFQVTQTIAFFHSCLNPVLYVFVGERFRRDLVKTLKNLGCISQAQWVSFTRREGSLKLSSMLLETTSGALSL

CCR6 = target: T4, CCR6 (UniProt P51684 1-374, limits assumed); test: FACS on PF382 cells (CCR7-/CCR9+/CCR6+)
T4 construct: whole, on cells; also called PF382 cells (CCR7-/CCR9+/CCR6+)
T4 sequence (looked up): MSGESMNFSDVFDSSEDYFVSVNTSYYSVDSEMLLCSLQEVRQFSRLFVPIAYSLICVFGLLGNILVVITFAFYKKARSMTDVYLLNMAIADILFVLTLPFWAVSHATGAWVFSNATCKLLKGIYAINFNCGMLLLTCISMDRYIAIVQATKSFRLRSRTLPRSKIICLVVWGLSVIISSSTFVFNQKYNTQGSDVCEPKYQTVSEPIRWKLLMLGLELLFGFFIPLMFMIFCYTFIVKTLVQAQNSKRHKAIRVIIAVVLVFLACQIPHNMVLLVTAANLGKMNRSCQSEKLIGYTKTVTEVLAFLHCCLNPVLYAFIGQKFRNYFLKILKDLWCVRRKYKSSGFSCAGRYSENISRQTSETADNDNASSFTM

CCR8 = target: T5, CCR8 (UniProt P51685 1-355, limits assumed); test: FACS on CHO-CCR8 cells
T5 construct: whole, on cells; also called CHO-CCR8
T5 sequence (P51685 whole entry): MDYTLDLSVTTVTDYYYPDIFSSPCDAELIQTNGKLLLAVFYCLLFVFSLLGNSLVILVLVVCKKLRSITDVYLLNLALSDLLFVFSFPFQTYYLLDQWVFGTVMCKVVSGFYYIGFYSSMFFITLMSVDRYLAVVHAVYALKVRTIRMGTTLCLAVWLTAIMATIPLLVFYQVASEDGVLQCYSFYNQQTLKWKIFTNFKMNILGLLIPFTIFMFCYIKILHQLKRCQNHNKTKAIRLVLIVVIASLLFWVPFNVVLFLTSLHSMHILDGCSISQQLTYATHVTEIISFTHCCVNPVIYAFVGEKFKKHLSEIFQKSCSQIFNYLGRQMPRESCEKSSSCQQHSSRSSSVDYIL

human CCR7 [6] = target: T1, human CCR7; test: ELISA on CCR7-expressing VLPs, pH 7.4 buffer
cynomolgus monkey CCR7 [7] = target: T6, cynomolgus monkey CCR7 (cynomolgus monkey, UniProt P32248 25-378 (human entry)); test: FACS titration, cynomolgus CD4+ T cells
T6 construct: also called Cyno CCR7; NIH3T3.cyno CCR7
T6 sequence: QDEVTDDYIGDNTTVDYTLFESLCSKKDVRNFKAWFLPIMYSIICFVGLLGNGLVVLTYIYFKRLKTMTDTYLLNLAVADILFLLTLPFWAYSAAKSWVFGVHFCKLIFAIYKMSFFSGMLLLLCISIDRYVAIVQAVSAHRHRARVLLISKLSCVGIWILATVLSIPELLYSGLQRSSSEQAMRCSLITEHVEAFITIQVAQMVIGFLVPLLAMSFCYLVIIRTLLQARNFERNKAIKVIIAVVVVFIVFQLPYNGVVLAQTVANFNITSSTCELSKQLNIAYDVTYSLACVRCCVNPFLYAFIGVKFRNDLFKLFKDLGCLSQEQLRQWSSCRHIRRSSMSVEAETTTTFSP

human CCR7 [8] = target: T1, human CCR7; test: ELISA on CCR7-expressing VLPs, pH 5.8 buffer
CXCR4 = target: T7, CXCR4 (UniProt P61073 1-352, limits assumed); test: FACS on HEK293-CXCR4 cells
T7 construct: whole, on cells; also called HEK293-CXCR4
T7 sequence (P61073 whole entry): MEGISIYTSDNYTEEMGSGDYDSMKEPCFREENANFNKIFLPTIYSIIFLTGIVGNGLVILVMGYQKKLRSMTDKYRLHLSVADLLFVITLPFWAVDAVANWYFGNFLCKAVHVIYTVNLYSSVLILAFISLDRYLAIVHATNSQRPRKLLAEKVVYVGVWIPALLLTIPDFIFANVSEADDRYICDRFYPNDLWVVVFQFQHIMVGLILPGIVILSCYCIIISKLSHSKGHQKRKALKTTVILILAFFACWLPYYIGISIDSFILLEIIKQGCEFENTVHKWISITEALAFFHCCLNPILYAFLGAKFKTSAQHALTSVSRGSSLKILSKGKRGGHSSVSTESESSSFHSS

human CCR7 [9] = target: T1, human CCR7; test: FACS titration, human CD4+ T cells from PBMC
human CCR7 [10] = target: T1, human CCR7; test: cell-based or functional assay; remark: listed apart in the source
cynomolgus monkey CCR7 [11] = target: T6, cynomolgus monkey CCR7; test: FACS titration, cynomolgus CD4+ T cells; remark: listed apart in the source
rat CCR7 = target: T8, rat CCR7 (rat, UniProt P47774 25-378 (mouse entry)); test: FACS titration, Wistar rat CD4+ T cells
T8 construct: also called NIH3T3.rat CCR7
T8 chain: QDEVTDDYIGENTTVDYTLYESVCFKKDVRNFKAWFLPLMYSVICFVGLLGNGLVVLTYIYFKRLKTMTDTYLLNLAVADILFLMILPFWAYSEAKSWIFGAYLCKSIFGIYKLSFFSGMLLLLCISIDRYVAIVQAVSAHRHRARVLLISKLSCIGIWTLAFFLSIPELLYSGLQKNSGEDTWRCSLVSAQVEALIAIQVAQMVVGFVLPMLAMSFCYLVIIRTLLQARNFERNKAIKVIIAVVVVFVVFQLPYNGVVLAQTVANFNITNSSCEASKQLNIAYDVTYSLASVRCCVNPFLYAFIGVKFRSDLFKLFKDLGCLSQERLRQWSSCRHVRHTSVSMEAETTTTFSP

mouse CCR7 = target: T9, mouse CCR7 (mouse, UniProt P47774 25-378); test: FACS titration, CD-1 mouse CD4+ T cells
T9 construct: also called NIH3T3.mouse CCR7
T9 sequence: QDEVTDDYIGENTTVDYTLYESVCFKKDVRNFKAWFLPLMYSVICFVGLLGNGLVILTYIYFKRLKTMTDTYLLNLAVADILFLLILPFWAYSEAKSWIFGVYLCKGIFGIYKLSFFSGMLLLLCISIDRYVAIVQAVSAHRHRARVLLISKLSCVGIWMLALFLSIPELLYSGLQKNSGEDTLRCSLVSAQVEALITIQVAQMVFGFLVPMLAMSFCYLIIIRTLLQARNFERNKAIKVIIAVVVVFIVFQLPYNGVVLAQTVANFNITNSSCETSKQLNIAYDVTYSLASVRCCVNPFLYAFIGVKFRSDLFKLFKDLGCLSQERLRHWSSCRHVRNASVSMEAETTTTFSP

human CCR7 [12] = target: T1, human CCR7; test: FACS titration, human CD4+ T cells from PBMC; remark: listed apart in the source
human CCR7 [13] = target: T1, human CCR7; test: FACS titration, NIH3T3 cells expressing human CCR7

Binder	binding result (CCR9)	binding result (CCR6)	binding result (CCR8)	Kd (human CCR7 [6])	EC50 (cynomolgus monkey CCR7 [7])	Kd (human CCR7 [8])	binding result (CXCR4)	ADCC activity; IC50 (nM); reporter assay, JVM2 targets and Jurkat-V158 effectors (human CCR7 [10])	EC50 (cynomolgus monkey CCR7 [11])	binding result (rat CCR7)	binding result (mouse CCR7)	EC50 (human CCR7 [12])	further results
Humanized 506E15.CysMab.DAPA (antibody, human IgG1, kappa, V domains shown, Human IgG1 kappa with D265A/P329A and CysMab cysteines; also called 506E15 (Humanized CysMab DAPA)) VH: EVQLVESGGGLVKPGGSLRLSCAASGFTFSSYAMSWIRQAPGKGLEWVATISSGGSFTYYPDSVKGRFTISRDNAKNSLYLQMNSLRAEDTAVYYCARRASTVVGTDFDVWGQGTTVTVSS VL: DIQMTQSPSSLSASVGDRVTLTCRASQDIGSSLNWLQQKPGKAIKRLIYATSSLDSGVPSRFSGSRSGTDYTLTISSLQPEDFVVYYCLQYASSPPTFGGGTKLEIKR													EC50 (human CCR7 [1]): 1.8 nM; EC50 (human CCR7 [2]): 3.09 nM; Kd [3]: 5.73 nM; EC50 (human CCR7 [4]): ~10 nM; pHrodo (6 h MFI), internalization, CD4+ T cells (receptor numbers 2000) (human CCR7 [5]): 429 MFI; pHrodo (6 h MFI), internalization, CMLT1 cells (receptor numbers 19583) (human CCR7 [5]): 465 MFI; pHrodo (6 h MFI), internalization, DEL cells (receptor numbers 110685) (human CCR7 [5]): 3060 MFI; pHrodo (6 h MFI), internalization, JVM3 cells (receptor numbers 8717) (human CCR7 [5]): 238 MFI; pHrodo (6 h MFI), internalization, Jeko-1 cells (receptor numbers 28852) (human CCR7 [5]): 908 MFI; pHrodo (6 h MFI), internalization, KE97 cells (receptor numbers 152093) (human CCR7 [5]): 2720 MFI; pHrodo (6 h MFI), internalization, L540 cells (receptor numbers 167549) (human CCR7 [5]): 16100 MFI; pHrodo (6 h MFI), internalization, L1236 cells (receptor numbers 61602) (human CCR7 [5]): 3130 MFI; pHrodo (6 h MFI), internalization, MJ cells (receptor numbers 111121) (human CCR7 [5]): 3870 MFI; pHrodo (6 h MFI), internalization, MOTN1 cells (receptor numbers 84200) (human CCR7 [5]): 2900 MFI; pHrodo (6 h MFI), internalization, Mec2 cells (receptor numbers 50840) (human CCR7 [5]): 3090 MFI
506E15 humanized CysMab (Fc Wild Type) (antibody, V domains shown, Human IgG1 kappa with CysMab cysteines; also called Humanized CysMab antibody 506E15) VH: EVQLVESGGGLVKPGGSLRLSCAASGFTFSSYAMSWIRQAPGKGLEWVATISSGGSFTYYPDSVKGRFTISRDNAKNSLYLQMNSLRAEDTAVYYCARRASTVVGTDFDVWGQGTTVTVSS VL: DIQMTQSPSSLSASVGDRVTLTCRASQDIGSSLNWLQQKPGKAIKRLIYATSSLDSGVPSRFSGSRSGTDYTLTISSLQPEDFVVYYCLQYASSPPTFGGGTKLEIK	no binding (tested: 5 ug/ml)	no binding (tested: 5 ug/ml)	no binding (tested: 5 ug/ml)	0.0571 nM	7 nM	0.494 nM	no binding (tested: 5 ug/ml)	0.054 nM					EC50 (human CCR7 [9]): 7.8 to 11 nM
506E15 non-humanized CysMab (antibody, human IgG1, kappa, V domains shown, Chimeric human IgG1 kappa with CysMab cysteines and wild type Fc; also called Parental 506E15 hIgG1 CysMab; Non-humanized CysMab antibody 506E15) VH: EVMLVESGGGLVKPGGSLKLSCAASGFTFSSYAMSWIRQTPEKRLEWVATISSGGSFTYYPDSVKGRFTISRDNVKNTLYLQMSSLRSEDTAMYYCARRASTVVGTDFDVWGAGTTVTVSS VL: DIQMTQSPSSLSASLGERVSLTCRASQDIGSSLNWLQQEPDGTIKRLIYATSSLDSGVPKRFSGSRSGSDYSLTISSLESEDFVVYYCLQYASSPPTFGGGTKLEIKR								0.131 nM	6.6 nM	no binding	no binding	4.6 to 9.7 nM	
674J13 humanized CysMab (Fc Wild Type) (antibody, V domains shown, Human IgG1 kappa with CysMab cysteines; also called Humanized CysMab antibody 674J13) VH: DVQLQESGPGLVKPSQTLSLTCTVSGYSITSGYSWHWIRQHPGKGLEWMAHIHSSGSTNYNPSLKSRITISRDTSKNQFSLKLSSVTAADTAVYYCARGGVQAFAYWGQGTLVTVSS VL: EIVLTQSPATLSASPGERVTMSCSASSSVIYMHWYQQKPGQAPRRWIYDTSKLASGVPARFSGSGSGTDYTLTISSMEPEDAAVYYCQQWSSNPLTFGQGTKLEIK	no binding (tested: 5 ug/ml)	no binding (tested: 5 ug/ml)	no binding (tested: 5 ug/ml)	0.0162 nM	0.5 nM	0.166 nM	no binding (tested: 5 ug/ml)						
674J13 non-humanized CysMab (antibody, human IgG1, kappa, V domains shown, Chimeric human IgG1 kappa with CysMab cysteines and wild type Fc; also called Parental 674J13 hIgG1 CysMab; Non-humanized CysMab antibody 674J13) VH: DVQLQESGPDLVKPSQSLSLTCTVTGYSITSGYSWHWIRQFPGNKLEWMAHIHSSGSTNYNPSLKSRISIIRDTSKNLFFLQLNSVTTEDTATYYCARGGVQAFAYWGQGTLVTVSA VL: QIVLTQSPAIMSASPGEKVTMTCSASSSVIYMHWYQQKSGTSPKRWIYDTSKLASGVPARFSGSGSGTSYSLTISSMEAEDAATYYCQQWSSNPLTFGAGTTLELKR								1.09 nM	0.45 nM	no binding	no binding	0.39 to 1.4 nM	EC50 (human CCR7 [13]): 3.6 nM

Reference: patent US20230181756A1 (Novartis, published 2023)
